Experimental data published in the DeepSol protein solubility set.

Experiment: soluble on expression in E. coli; label from the status in PepcDB or PDB records

| Sequence | soluble on expression in E. coli |
| --- | --- |
| MRVDAIAKVTGRARYTDDYVMAGMCYAKYVRSPIAHGYAVSINDEQARSLPGVLAIFTWEDVPDIPFATAGHAWTLDENKRDTADRALLTRHVRHHGDAVAIVVARDELTAEKAAQLVSIEWQELPVITTPEAALAEDAAPIHNGGNLLKQSTMSTGNVQQTIDAADYQVQGHYQTPVIQHCHMESVTSLAWMEDDSRITIVSSTQIPHIVRRVVGQALDIPWSCVRVIKPFVGGGFGNKQDVLEEPMAAFLTSKLGGIPVKVSLSREECFLATRTRHAFTIDGQMGVNRDGTLKGYSLDVLSNTGAYASHGHSIASAGGNKVAYLYPRCAYAYSSKTCYTNLPSAGAMRGYGAPQVVFAVESMLDDAATALGIDPVEIRLRNAAREGDANPLTGKRIYSAGLPECLEKGRKIFEWEKRRAECQNQQGNLRRGVGVACFSYTSNTWPVGVEIAGARLLMNQDGTINVQSGATEIGQGADTVFSQMVAETVGVPVSDVRVISTQDTDVTPFDPGAFASRQSYVAAPALRSAALLLKEKIIAHAAVMLHQSAMNLTLIKGHIVLVERPEEPLMSLKDLAMDAFYHPERGGQLSAESSIKTTTNPPAFGCTFVDLTVDIALCKVTINRILNVHDSGHILNPLLAEGQVHGGMGMGIGWALFEEMIIDAKSGVVRNPNLLDYKMPTMPDLPQLESAFVEINEPQSAYGHKSLGEPPIIPVAAAIRNAVKMATGVAINTLPLTPKRLYEEFHLAGLI | soluble |
| MGSDKIHHHHHHMAFILMQNINKTFHGVKALNRVNLSLDYGEALCLAGQNGCGKSTLIKILSGVYQPDKGAEIQIGASKYTKLTPQASIEQGIQVIYQDLALFPNLTVAENIAINLHRKLGWVSQSEIHQVALNAILSINADLDLNAILEDLPIAQQQLVAICRALAQNARLLIMDEPTASLTAKEVQDLLKVVLKLKSKGISIIFVSHKLQEVMSVSDTVLVLKNGNMVGQYPISEMDEKRLGFLMTGLEIDYKRLDLPDFSQNRTVLEVQNLTLPNQYESINFSLREGEIIALTGLLGSGRTELCLSLFGITQPKSGDILLNGEKVIFQNNRDAIKQGIAYVSEDRMTTGLIMTESIHHNIISTIFHKITDKFNIIKSSKAYNYSQELIESLKIKVTDSDLPVNTLSGGNAQRVSIAKWLAIDPRIIILDAPTIGVDIANKEGIFQIIRTLAQKGIAVIFVTDEVEEAYYNSHKVIVMKKGKIVGEILPIYTTEKSIAEVVYENHQ | not soluble |
| MKTNSEELTVFVQVVESGSFSRAAEQLEMANSAVSRIVKRLEEKLGVNLLNRTTRQLNLTEEGAQYFRRAQRILQEMAAAETEMLAVHEVPQGVLRVDSAMPMVLHLLAPLAAKFNERYPHIRLSLVSSEGYINLIERKVDIALRAGELDDSGLRARHLFDSHFRVVASPEYLAKHGTPQSAEDLANHQCLGFTEPGSLNTWAVLDAQGNPYKISPHFTASSGEILRSLCLSSCGIACLSDFLVDNDITEGKLIPLFAEQTSNKTHPFNAVYYSDKAVNLRLRVFLDFLVKELGKNMNRTNTK | not soluble |
| GGLPIVGDIFRFLDNGRTGLYENYKEFSTELNMTRESNGVKVTINDVISDGRTLSITYSLESEQDLGDDPIILGGLDIMDAHGSSGSGKMTKVTEKKYVGMVTTTHHDSNKKDKVNFRWNIEGIEIPDRKKSIQGHWNFALTVKSMDSKERTIGGSSEKEGIKANMEKVAMSPVSFILYYNQEVSKGARKEWDSVDVELTVKDDLGNDYSGEGNGGSGNDPYNIRWSATFQKLNENATKLIVTPRVHLRVHTPENHGGVEYVNGKEKKIEVPNKEAKKKDIVLDDIVIDLKK | soluble |
| EVQLLESGGGLVQPGGSLRLSCAASGFTFSRYVMWWVRQAPGKGLEWVSYIWPSGGNTYYADSVKGRFTISRDNSKNTLYLQMNSLRAEDTAVYYCASSYDFWSNAFDIWGQGTMVTVSSASTKGPSVFPLAPCSRSTSESTAALGCLVKDYFPEPVTVSWNSGALTSGVHTFPAVLQSSGLYSLSSVVTVPSSSLGTKTYTCNVDHKPSNTKVDKRVES | soluble |
| MIPLLGIISLSLNISGPKYRLEMGLGGKVAVDSTFSNEGVQKATEPNGTKVTYYYGGESKGFIEFSSDWKLKINEKCDINFGPRIKLLNISHIAKNIFFFLGITAGAGFEFNYNIRENVKFYTGIDGLIGMGTFMNLNNSSSKDTESKKISVIYDFIPESNVTVGTKINDKYNVGLFVDILQGYFGLKAGYTF | not soluble |
| MPITWMRMRPWLEMQINSNQIPGLIWINKEEMIFQIPWKHAAKHGWDINKDACLFRSWAIHTGRYKAGEKEPDPKTWKANFRCAMNSLPDIEEVKDQSRNKGSSAVRVYRMLP | soluble |
